# Laboratory results published in publication PMC12394548.
# B1: VCPIP1^(ΔVCPID ΔUBX) (aa Δ589-666, Δ773-852) (enzyme)
# chain: MSQPPPPPPPLPPPPPPPEAPQTPSSLASAAASGGLLKRRDRRILSGSCPDPKCQARLFFPASGSVSIECTECGQRHEQQQLLGVEEVTDPDVVLHNLLRNALLGVTGAPKKNTELVKVMGLSNYHCKLLSPILARYGMDKQTGRAKLLRDMNQGELFDCALLGDRAFLIEPEHVNTVGYGKDRSGSLLYLHDTLEDIKRANKSQECLIPVHVDGDGHCLVHAVSRALVGRELFWHALRENLKQHFQQHLARYQALFHDFIDAAEWEDIINECDPLFVPPEGVPLGLRNIHIFGLANVLHRPIILLDSLSGMRSSGDYSATFLPGLIPAEKCTGKDGHLNKPICIAWSSSGRNHYIPLVGIKGAALPKLPMNLLPKAWGVPQDLIKKYIKLEEDGGCVIGGDRSLQDKYLLRLVAAMEEVFMDKHGIHPSLVADVHQYFYRRTGVIGVQPEEVTAAAKKAVMDNRLHKCLLCGALSELHVPPEWLAPGGKLYNLAKSTHGQLRTDKNYSFPLNNLVCSYDSVKDVLVPDYGMSNLTACNWCHGTSVRKVRGDGSIVYLDGDRTNSRSTGGKCGCGFKHFWDGKEYDNLNIDGAHAQRVGDVQGQESESQLPTKIILTGQKTKTLHKEELNMSKTERTIQQNITEQASVMQKRKTEKLKQEQKGQPRTVSPSTIRDGPSSAPATPTKAPYSPTTSSKAEGGQSAAAHSAHTVKQEDIAVTGKLSSKELQEQAEKEMYSLCLLATLMGEDVWSYAKGLPHMFQQGGVFYSIMKKTMGMADGKHCTFPHLPGKTFVYNASEDRLELCVDAAGHFPIGPDVEDLVKEAVSQVRAEATTRSRESSPSHGLLKLGSGGVVKKKSEQLHNVTAFQGKGHSLGTASGNPHLDPRARETSVVRKHNTGTDFSNSSTKTEPSVFTASSSNSELIRIAPGVVTMRDGRQLDPDLVEAQRKKLQEMVSSIQASMDRHLRDQSTEQSPSDLPQRKTEVVSSSAKSGSLQTGLPESFPLTGGTENLNTETTDGCVADALGAAFATRSKAQRGNSVEELEEMDSQDAEMTNTTEPMDHS
# modifications: BODIPY, non-site-selective labelling, DOL 0.44, in the TR-FRET binding assay
# B2: VCPIP1^ΔUBX (aa Δ773-852) (enzyme)
# chain: MSQPPPPPPPLPPPPPPPEAPQTPSSLASAAASGGLLKRRDRRILSGSCPDPKCQARLFFPASGSVSIECTECGQRHEQQQLLGVEEVTDPDVVLHNLLRNALLGVTGAPKKNTELVKVMGLSNYHCKLLSPILARYGMDKQTGRAKLLRDMNQGELFDCALLGDRAFLIEPEHVNTVGYGKDRSGSLLYLHDTLEDIKRANKSQECLIPVHVDGDGHCLVHAVSRALVGRELFWHALRENLKQHFQQHLARYQALFHDFIDAAEWEDIINECDPLFVPPEGVPLGLRNIHIFGLANVLHRPIILLDSLSGMRSSGDYSATFLPGLIPAEKCTGKDGHLNKPICIAWSSSGRNHYIPLVGIKGAALPKLPMNLLPKAWGVPQDLIKKYIKLEEDGGCVIGGDRSLQDKYLLRLVAAMEEVFMDKHGIHPSLVADVHQYFYRRTGVIGVQPEEVTAAAKKAVMDNRLHKCLLCGALSELHVPPEWLAPGGKLYNLAKSTHGQLRTDKNYSFPLNNLVCSYDSVKDVLVPDYGMSNLTACNWCHGTSVRKVRGDGSIVYLDGDRTNSRSTGGKCGCGFKHFWDGKEYDNLPEAFPITLEWGGRVVRETVYWFQYESDSSLNSNVYDVAMKLVTKHFPGEFGSEILVQKVVHTILHQTAKKNPDDYTPVNIDGAHAQRVGDVQGQESESQLPTKIILTGQKTKTLHKEELNMSKTERTIQQNITEQASVMQKRKTEKLKQEQKGQPRTVSPSTIRDGPSSAPATPTKAPYSPTTSSKAEGGQSAAAHSAHTVKQEDIAVTGKLSSKELQEQAEKEMYSLCLLATLMGEDVWSYAKGLPHMFQQGGVFYSIMKKTMGMADGKHCTFPHLPGKTFVYNASEDRLELCVDAAGHFPIGPDVEDLVKEAVSQVRAEATTRSRESSPSHGLLKLGSGGVVKKKSEQLHNVTAFQGKGHSLGTASGNPHLDPRARETSVVRKHNTGTDFSNSSTKTEPSVFTASSSNSELIRIAPGVVTMRDGRQLDPDLVEAQRKKLQEMVSSIQASMDRHLRDQSTEQSPSDLPQRKTEVVSSSAKSGSLQTGLPESFPLTGGTENLNTETTDGCVADALGAAFATRSKAQRGNSVEELEEMDSQDAEMTNTTEPMDHS
# modifications: BODIPY, non-site-selective labelling, DOL 0.54, in the TR-FRET binding assay
# Molecular target: valosin-containing protein (VCP)/p97 (UniProt P55072)
# Sequence (P55072 whole entry): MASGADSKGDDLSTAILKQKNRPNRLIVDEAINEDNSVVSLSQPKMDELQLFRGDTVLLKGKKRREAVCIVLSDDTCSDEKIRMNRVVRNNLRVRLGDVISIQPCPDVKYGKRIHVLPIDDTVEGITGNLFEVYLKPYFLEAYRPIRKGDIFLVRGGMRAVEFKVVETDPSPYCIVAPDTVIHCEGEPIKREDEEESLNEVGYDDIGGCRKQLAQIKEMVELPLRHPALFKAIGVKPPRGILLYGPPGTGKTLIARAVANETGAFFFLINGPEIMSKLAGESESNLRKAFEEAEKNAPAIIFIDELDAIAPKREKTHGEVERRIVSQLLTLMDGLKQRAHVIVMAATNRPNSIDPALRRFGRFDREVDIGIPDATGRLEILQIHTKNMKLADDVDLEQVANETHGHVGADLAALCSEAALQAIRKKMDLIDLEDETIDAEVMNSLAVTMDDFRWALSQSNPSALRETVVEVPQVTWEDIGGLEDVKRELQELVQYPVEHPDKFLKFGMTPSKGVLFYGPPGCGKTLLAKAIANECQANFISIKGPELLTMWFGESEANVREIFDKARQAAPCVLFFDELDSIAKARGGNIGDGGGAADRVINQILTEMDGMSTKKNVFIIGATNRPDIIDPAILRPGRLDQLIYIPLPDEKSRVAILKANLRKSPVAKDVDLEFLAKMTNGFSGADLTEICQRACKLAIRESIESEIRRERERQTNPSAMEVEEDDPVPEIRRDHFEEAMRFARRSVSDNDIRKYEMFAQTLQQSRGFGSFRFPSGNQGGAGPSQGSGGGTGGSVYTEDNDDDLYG
Binder,initial velocity of Ub-Rho hydrolysis by VCPIP1^(ΔVCPID ΔUBX) (62.5 nM enzyme) in the presence of VCP (v0 = 656.0 RFU/min without VCP); no effect of VCP,initial velocity of Ub-Rho hydrolysis by VCPIP1^ΔUBX (62.5 nM enzyme) in the presence of VCP (v0 = 754.0 RFU/min without VCP); no effect of VCP
B1,562 RFU/min,–
B2,–,733 RFU/min
